Results published in article PMC2765250 (Vaccine, 2009).

Molecular target: purified rhesus macaque MHC class I molecule Mamu-B*17 with human beta2-microglobulin (rhesus macaque | human)
Experiment: radioligand binding

| Binder | IC50 [µM] |
| --- | --- |
| LTIEAIENYF [VACV-WR peptide 71NP (LTIEAIENYF), ORF L4R] | 8.77 |
| SSPLELFML [VACV-WR peptide 51P (SSPLELFML), ORF E9L] | 11.8 |
